In article doi:10.1101/2025.05.02.651858, “Structural basis of unidirectional DNA recombination by the ϕC31 serine integrase” (bioRxiv, 2025):
Changes are numbered by the printed parent chain. Numbers in names are those of the source.

B1: ϕC31 Recombination Directionality Factor (RDF), gp3 (natural protein, Streptomyces phage ϕC31, UniProt Q9T216 1-244, looked up)
chain: MAKRSIWAGDEDNKPKKRETYADDTVGRFHSGYSETNERGKVVPVALDKWRISTGEQSVADAVAQLFGGTPVENEESTSENFIDVFTDRPKVPVIIEADGIHWDMKLWLNGKLKHHCDGFDFVSHADEEMIGQPCGCPKLFDERKAAAKEYDAPNPAITVTFTLADDPELGRFKFQTGSWTLFKVLHEAEDDVERVGKGGAVLANLELELVEYTPKRGPMRNKLVSYYKPTITVLKSYNDAIAD
notes: RDF gp3 protein of Streptomyces phage ϕC31, UniProt Q9T216; residues 23–239 were modelled in the cryo-EM structure; In the excisive synaptic complex structure the RDF stood as the C-terminal part of the fusion protein m9, not as the separate His-tagged protein; source: E. coli BL21 (DE3) LOBSTR, pET28a, purified (HisTrap Ni-NTA, Superdex 200 SEC)
B2: ϕC31 integrase S12A (cleavage-deficient mutant, full length) (enzyme, Streptomyces phage ϕC31, UniProt Q9T221 1-605, looked up)
chain: MDTYAGAYDRQARERENSSAASPATQRSANEDKAADLQREVERDGGRFRFVGHFSEAPGTSAFGTAERPEFERILNECRAGRLNMIIVYDVSRFSRLKVMDAIPIVSELLALGVTIVSTQEGVFRQGNVMDLIHLIMRLDASHKESSLKSAKILDTKNLQRELGGYVGGKAPYGFELVSETKEITRNGRMVNVVINKLAHSTTPLTGPFEFEPDVIRWWWREIKTHKHLPFKPGSQAAIHPGSITGLCKRMDADAVPTRGETIGKKTASSAWDPATVMRILRDPRIAGFAAEVIYKKKPDGTPTTKIEGYRIQRDPITLRPVELDCGPIIEPAEWYELQAWLDGRGRGKGLSRGQAILSAMDKLYCECGAVMTSKRGEESIKDSYRCRRRKVVDPSAPGQHEGTCNVSMAALDKFVAERIFNKIRHAEGDEETLALLWEAARRFGKLTEAPEKSGERANLVAERADALNALEELYEDRAAGAYDGPVGRKHFRKQQAALTLRQQGAEERLAELEAAEAPKLPLDQWFPEDADADPTGPKSWWGRASVDDKRVFVGLFVDKIVVTKSTTGRGQGTPIEKRASITWAKPPTDDDEDDAQDGTEDVAA
notes: ϕC31 integrase, Streptomyces phage ϕC31, UniProt Q9T221, 605-amino acid polypeptide chain, with S12A; also called full-length S12A integrase; source: E. coli BL21 (DE3) LOBSTR, pET28a, purified (HisTrap Ni-NTA, Superose 6 SEC)
B3: ϕC31 integrase (wild type) (enzyme, Streptomyces phage ϕC31, UniProt Q9T221 1-605, looked up)
chain: B2 chain with A12S
notes: ϕC31 integrase, Streptomyces phage ϕC31, UniProt Q9T221, 605-amino acid polypeptide chain; Used only for the integrase–attL cryo-EM complex (dimer on attL60 DNA); also called WT integrase; source: E. coli BL21 (DE3) LOBSTR, pET28a, purified (HisTrap Ni-NTA, Superose 6 SEC)
B4: ϕC31 integrase S12A/E449K (enzyme, Streptomyces phage ϕC31, UniProt Q9T221 1-605, looked up)
chain: B2 chain with E449K
notes: ϕC31 integrase, UniProt Q9T221, with S12A and E449K; also called S12A/E449K double mutant; source: E. coli BL21 (DE3) LOBSTR, pET28a, purified (HisTrap Ni-NTA, Superose 6 SEC)
B5: ϕC31 integrase ΔNTD (residues 1–140 deleted) (domain or fragment, Streptomyces phage ϕC31, UniProt Q9T221 141-605, looked up)
chain: ASHKESSLKSAKILDTKNLQRELGGYVGGKAPYGFELVSETKEITRNGRMVNVVINKLAHSTTPLTGPFEFEPDVIRWWWREIKTHKHLPFKPGSQAAIHPGSITGLCKRMDADAVPTRGETIGKKTASSAWDPATVMRILRDPRIAGFAAEVIYKKKPDGTPTTKIEGYRIQRDPITLRPVELDCGPIIEPAEWYELQAWLDGRGRGKGLSRGQAILSAMDKLYCECGAVMTSKRGEESIKDSYRCRRRKVVDPSAPGQHEGTCNVSMAALDKFVAERIFNKIRHAEGDEETLALLWEAARRFGKLTEAPEKSGERANLVAERADALNALEELYEDRAAGAYDGPVGRKHFRKQQAALTLRQQGAEERLAELEAAEAPKLPLDQWFPEDADADPTGPKSWWGRASVDDKRVFVGLFVDKIVVTKSTTGRGQGTPIEKRASITWAKPPTDDDEDDAQDGTEDVAA
notes: ϕC31 integrase, UniProt Q9T221, residues 1–140 deleted from the 605-amino acid chain; source: E. coli BL21 (DE3) LOBSTR, pET28a, purified (HisTrap Ni-NTA, Superose 6 SEC)

What was measured:
[1] = molecular target: B2; assay: SEC-MALS; SEC-MALLS with SDS-PAGE of the peaks: pre-formed integrase S12A–attB–attP synaptic complex mixed with RDF at 1:3 integrase:RDF molar ratio, 5 min room temperature; Superose 6 increase 10/300, 20 mM HEPES pH 7.4, 150 mM NaCl, 2 mM MgCl2, 0.1 mM TCEP, 25 °C; conditions: both partners purified
[2] = molecular target: the molecule itself; assay: SEC-MALS; SEC-MALLS of equal amounts of purified integrase–attB and integrase–attP complexes mixed; step: two dimer–att complexes to the tetramer–attB–attP synaptic complex; Superose 6 increase 10/300, 20 mM HEPES pH 7.4, 150 mM NaCl, 2 mM MgCl2, 0.1 mM TCEP, 25 °C
[3] = molecular target: the molecule itself; assay: cryo-EM structure; WT integrase–attL60 dimer complex, without RDF; 20 mM HEPES pH 7.4, 150 mM NaCl, 2 mM MgCl2, 0.1 mM TCEP; 0.4 mg/ml
[4] = molecular target: the molecule itself; assay: SEC-MALS; SEC-MALLS of integrase–attL complexes, without RDF; step: dimer–attL to attL–attL synaptic complex; Superose 6 increase 10/300, 20 mM HEPES pH 7.4, 150 mM NaCl, 2 mM MgCl2, 0.1 mM TCEP, 25 °C

B1: binds [1].

In the case of B2, the “stoichiometry N” value [2] is reported as 4.

B3: binds [3].

B4: binds [4].

B5: binds [2].
